Assay [1] deals with T1, mouse eNOS (mouse, UniProt P70313 2-1202).
T1 construct: whole, on cells; Endogenous protein in mouse wound homogenates used for Co-IP; also called eNOS (mouse wounds)
T1 sequence (looked up): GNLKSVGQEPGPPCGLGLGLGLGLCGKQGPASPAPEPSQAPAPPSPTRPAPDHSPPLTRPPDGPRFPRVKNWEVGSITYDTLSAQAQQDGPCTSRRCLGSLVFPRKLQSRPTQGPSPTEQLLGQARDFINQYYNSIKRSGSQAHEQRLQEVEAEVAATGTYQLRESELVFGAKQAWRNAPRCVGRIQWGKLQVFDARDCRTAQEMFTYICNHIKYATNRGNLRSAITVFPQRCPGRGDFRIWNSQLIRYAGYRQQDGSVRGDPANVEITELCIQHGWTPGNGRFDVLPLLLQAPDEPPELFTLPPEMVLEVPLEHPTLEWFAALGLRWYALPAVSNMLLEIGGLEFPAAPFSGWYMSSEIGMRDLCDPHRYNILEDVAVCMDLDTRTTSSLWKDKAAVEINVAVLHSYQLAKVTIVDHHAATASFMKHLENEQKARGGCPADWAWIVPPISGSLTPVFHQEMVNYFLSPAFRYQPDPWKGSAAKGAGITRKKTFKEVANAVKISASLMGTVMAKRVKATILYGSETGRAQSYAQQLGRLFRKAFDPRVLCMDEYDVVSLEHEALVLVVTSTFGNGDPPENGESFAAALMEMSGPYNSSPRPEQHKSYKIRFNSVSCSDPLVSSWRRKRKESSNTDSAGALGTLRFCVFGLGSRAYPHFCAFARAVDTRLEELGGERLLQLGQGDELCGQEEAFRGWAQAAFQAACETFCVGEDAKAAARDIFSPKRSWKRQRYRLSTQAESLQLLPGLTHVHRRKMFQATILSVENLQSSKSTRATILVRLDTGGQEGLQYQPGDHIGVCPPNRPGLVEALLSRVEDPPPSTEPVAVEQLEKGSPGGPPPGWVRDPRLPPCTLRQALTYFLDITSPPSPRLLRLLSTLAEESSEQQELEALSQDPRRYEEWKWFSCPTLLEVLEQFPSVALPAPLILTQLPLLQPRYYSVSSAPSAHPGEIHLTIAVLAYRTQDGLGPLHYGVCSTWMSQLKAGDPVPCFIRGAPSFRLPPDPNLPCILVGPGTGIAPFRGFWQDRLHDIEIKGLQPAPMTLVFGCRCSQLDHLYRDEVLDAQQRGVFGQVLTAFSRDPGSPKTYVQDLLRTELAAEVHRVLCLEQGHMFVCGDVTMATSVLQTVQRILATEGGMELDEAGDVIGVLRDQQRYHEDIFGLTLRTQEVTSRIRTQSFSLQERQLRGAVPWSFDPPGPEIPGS
Kind of assay: Co-IP from mouse wounds (FIG. 4).

The target in assay [2] is calmodulin (CaM) (human, UniProt P0DP23 2-149). The experiment in a line: Co-IP in endothelial cells; not affected by Myr-CBD7 pretreatment.

B1: mouse CCR10 (receptor, UniProt Q9JL21 1-362, looked up)
chain: MGTKPTEQVSWGLYSGYDEEAYSVGPLPELCYKADVQAFSRAFQPSVSLMVAVLGLAGNGLVLATHLAARRTTRSPTSVHLLQLALADLLLALTLPFAAAGALQGWNLGSTTCRAISGLYSASFHAGFLFLACISADRYVAIARALPAGQRPSTPSRAHLVSVFVWLLSLFLALPALLFSRDGPREGQRRCRLIFPESLTQTVKGASAVAQVVLGFALPLGVMAACYALLGRTLLAARGPERRRALRVVVALVVAFVVLQLPYSLALLLDTADLLAARERSCSSSKRKDLALLVTGGLTLVRCSLNPVLYAFLGLRFRRDLRRLLQGGGCSPKPNPRGRCPRRLRLSSCSAPTETHSLSWDN
notes: whole, on cells; Endogenous protein in mouse wound homogenates used for Co-IP; also called CCR10 (mouse wounds)
Consider B1, for which the binding result in assay [1] is on record as “binds”.

B2: human endothelial nitric oxide synthase (eNOS) (enzyme)
chain: GNLKSVAQEPGPPCGLGLGLGLGLCGKQGPATPAPEPSRAPASLLPPAPEHSPPSSPLTQPPEGPKFPRVKNWEVGSITYDTLSAQAQQDGPCTPRRCLGSLVFPRKLQGRPSPGPPAPEQLLSQARDFINQYYSSIKRSGSQAHEQRLQEVEAEVAATGTYQLRESELVFGAKQAWRNAPRCVGRIQWGKLQVFDARDCRSAQEMFTYICNHIKYATNRGNLRSAITVFPQRCPGRGDFRIWNSQLVRYAGYRQQDGSVRGDPANVEITELCIQHGWTPGNGRFDVLPLLLQAPDDPPELFLLPPELVLEVPLEHPTLEWFAALGLRWYALPAVSNMLLEIGGLEFPAAPFSGWYMSTEIGTRNLCDPHRYNILEDVAVCMDLDTRTTSSLWKDKAAVEINVAVLHSYQLAKVTIVDHHAATASFMKHLENEQKARGGCPADWAWIVPPISGSLTPVFHQEMVNYFLSPAFRYQPDPWKGSAAKGTGITRKKTFKEVANAVKISASLMGTVMAKRVKATILYGSETGRAQSYAQQLGRLFRKAFDPRVLCMDEYDVVSLEHETLVLVVTSTFGNGDPPENGESFAAALMEMSGPYNSSPRPEQHKSYKIRFNSISCSDPLVSSWRRKRKESSNTDSAGALGTLRFCVFGLGSRAYPHFCAFARAVDTRLEELGGERLLQLGQGDELCGQEEAFRGWAQAAFQAACETFCVGEDAKAAARDIFSPKRSWKRQRYRLSAQAEGLQLLPGLIHVHRRKMFQATIRSVENLQSSKSTRATILVRLDTGGQEGLQYQPGDHIGVCPPNRPGLVEALLSRVEDPPAPTEPVAVEQLEKGSPGGPPPGWVRDPRLPPCTLRQALTFFLDITSPPSPQLLRLLSTLAEEPREQQELEALSQDPRRYEEWKWFRCPTLLEVLEQFPSVALPAPLLLTQLPLLQPRYYSVSSAPSTHPGEIHLTVAVLAYRTQDGLGPLHYGVCSTWLSQLKPGDPVPCFIRGAPSFRLPPDPSLPCILVGPGTGIAPFRGFWQERLHDIESKGLQPTPMTLVFGCRCSQLDHLYRDEVQNAQQRGVFGRVLTAFSREPDNPKTYVQDILRTELAAEVHRVLCLERGHMFVCGDVTMATNVLQTVQRILATEGDMELDEAGDVIGVLRDQQRYHEDIFGLTLRTQEVTSRIRTQSFSLQERQLRGAVPWAFDPPGSDTNSP
notes: whole, on cells; Endogenous intracellular / membrane-associated protein of human endothelial cells; co-immunoprecipitated from lysates
With B2, the binding result in assay [2] was “binds”.

The values above are taken from patent US20220265759A1 (BOARD OF TRUSTEES OF THE UNIVERSITY OF ILLIOIS, published 2022).
